Results reported in US20170246372A1.

Biological target: ADAMTS-5 (UniProt Q9UNA0)
Test: cell-based or functional assay

Chain of UniProt Q9UNA0 (Q9UNA0 262-622 limits assumed): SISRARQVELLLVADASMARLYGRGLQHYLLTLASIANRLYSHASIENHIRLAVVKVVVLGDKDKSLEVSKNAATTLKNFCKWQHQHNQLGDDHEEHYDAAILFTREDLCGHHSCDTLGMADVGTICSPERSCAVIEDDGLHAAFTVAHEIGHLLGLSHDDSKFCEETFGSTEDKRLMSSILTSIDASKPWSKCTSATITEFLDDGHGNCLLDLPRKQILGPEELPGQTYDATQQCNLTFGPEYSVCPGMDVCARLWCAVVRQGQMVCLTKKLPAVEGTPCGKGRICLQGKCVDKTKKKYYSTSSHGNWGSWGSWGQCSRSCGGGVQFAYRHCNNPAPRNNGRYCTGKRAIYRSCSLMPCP

- IC50 for inhibiting 500 ng/ml of ADAMTS-5 (bovine cartilage explants, 2 days, 3-fold serial dilution of A2M): 7 µg/mL
- Maximum inhibition (bovine cartilage explants treated with protease, 2 days): 90%
Substance: purified A2M (alpha-2-macroglobulin) (from UniProt P01023 24-1474)
